# Measured values: publication PMC3608532, “Characterization of a Single-Chain Variable Fragment Recognizing a Linear Epitope of Aβ: A Biotechnical Tool for Studies on Alzheimer’s Disease?” (PLoS ONE, 2013)
# T1: Aβ(2-8)-GSGSC (human)
# T1 construct: amyloid-β peptide (Aβ), cut from the amyloid precursor protein (APP), human, residues 2-8; C-terminal spacer with the cysteine by which the peptide was coupled to the chip; source: synthetic peptide, bought: JPT
# T1 chain: AEFRHDSGSGSC
# T2: Aβ(1-8)-GSGSC (human)
# T2 construct: amyloid-β peptide (Aβ), cut from the amyloid precursor protein (APP), human, residues 1-8; C-terminal spacer with the cysteine by which the peptide was coupled to the chip; source: synthetic peptide, bought: JPT
# T2 chain: DAEFRHDSGSGSC
# T3: Aβ(3-8)-GSGSC (human)
# T3 construct: amyloid-β peptide (Aβ), cut from the amyloid precursor protein (APP), human, residues 3-8; C-terminal spacer with the cysteine by which the peptide was coupled to the chip; source: synthetic peptide, bought: JPT
# T3 chain: EFRHDSGSGSC
# Tests used:
# Assay in all cases: SPR; Biacore X; Aβ peptides coupled via the C-terminal cysteine to a CM5 chip; IC16 injected (10 to 1000 nM), 20 µl/min, PBS, 25°C; global fit, bivalent binding model
# Conditions in all cases: both partners purified
# Aβ(2-8)-GSGSC = biological target: T1, Aβ(2-8)-GSGSC
# Aβ(1-8)-GSGSC = biological target: T2, Aβ(1-8)-GSGSC
# Aβ(3-8)-GSGSC = biological target: T3, Aβ(3-8)-GSGSC
binder,measurement,setting,value
"monoclonal IgG2a antibody IC16 (antibody, V domains shown, IgG2a; raised in a PrP knockout mouse against KLH Aβ(1-16); also called monoclonal parent antibody IC16; source: IC16 hybridoma (mouse); copies: 2 + 2) VH: QVTLKESGPGILQPSQTLSLTCSFSGFSLSTSGMGVSWIRQPSGKGLEWLAHIFWDDDKNYNPSLKSRLTVSKDTSRNQVFLKITSVDTSDTATYYCARSPHLRGYDVDFDYWGQGTTLTVSS VL: DVLMTQTPLSLPVSLGDQASISCRSSQSLVHSNGNTYLHWYLQKPGQSPKVLIYKVSNRFSGVPDRFSGSGSGTDFTLKISRVEAEDLGVYFCSQSTHVPLTFGAGTKLELK",Kd,Aβ(2-8)-GSGSC,32 nM
same,koff,Aβ(2-8)-GSGSC,0.00154 s⁻¹
same,kon,Aβ(2-8)-GSGSC,48500 M⁻¹ s⁻¹
same,Kd,Aβ(1-8)-GSGSC,51 nM
same,koff,Aβ(1-8)-GSGSC,0.0018 s⁻¹
same,kon,Aβ(1-8)-GSGSC,35000 M⁻¹ s⁻¹
same,Kd,Aβ(3-8)-GSGSC,82 nM
same,koff,Aβ(3-8)-GSGSC,0.00343 s⁻¹
same,kon,Aβ(3-8)-GSGSC,41700 M⁻¹ s⁻¹
